Data published in patent US20240279344A1 (CDR LIFE, published 2024).

How the values were obtained:
[1] = molecular target: T1, HLA-A2/MAGE-A4 complex, recombinant (HLA-A*02:01 extracellular domain, human b2m, MAGE-A4 peptide 230-239 …) (human, UniProt P04439 25-299 at identity 0.94); P61769 21-119); assay: direct ELISA, plate coated with HLA-A2/MAGE-A4 complex, serial dilution of the antibody
T1 construct: also called MAGE-A4 pMHC; MAGE-A4/HLA-A2 complex
Protocol: All available hits were evaluated for their ability to bind MAGE-A4/HLA-A2 complex and a control peptide/HLA-A2 complex in a direct binding ELISA assay. […] Briefly, 96 well ELISA plates were coated with purified human MAGE-A4/HLA-A2 complex or control HLA-A2 complex. Serial dilutions of antibody molecules were added to the plate and detected by an anti-kappa light chain-HRP (Invitrogen) or a purified rabbit anti-VHH (QVQ) followed by goat anti-rabbit IgG(H+L) HRP (Southern Biotech). […] 5B.

[2] = molecular target: T2, control peptide 1 (…) displayed by HLA-A2 on T2 cells (human); assay: flow cytometry on peptide-pulsed T2 cells, relative MFI (binding over peptide loading)
T2 construct: whole, on cells; also called Ctrl.1
Protocol: (§1) TAP-deficient T2 cells were pulsed with HLA-A2-restricted peptides (MAGE-A4 or control peptides) and incubated with MAGE-A4 binders followed by fluorophore-labeled specific detection antibodies and analysis by flow cytometry.
(§2) Briefly, T-B hybrid T2 cells were incubated with serum-free RPMI1640 medium containing MAGE-A4 or control peptides. […] Peptide loading efficiency was verified by using the ratio between median fluorescent intensity (MFI) of HLA-A2-binding antibody BB7.2 on peptide loaded T2 cells and MFI of unloaded T2 cells (>1). T2 cells were incubated with each of the specific antibodies followed by fluorophore-labeled detection antibodies (anti-kappa light chain or anti-Flag). The cells were fixed and fluorescence was measured by flow cytometry.

[3] = molecular target: T3, control peptide 2 (…) displayed by HLA-A2 on T2 cells (human); assay: as above
T3 construct: whole, on cells; also called Ctrl.2
Protocol: as §1, §2

[4] = molecular target: T4, control peptide 3 (…) displayed by HLA-A2 on T2 cells (human); assay: as above
T4 construct: whole, on cells; also called Ctrl.3
Protocol: as §1, §2

[5] = molecular target: T1, HLA-A2/MAGE-A4 complex, recombinant …; assay: SPR

| Binder | binding result [1] | binding result [2] | binding result [3] | binding result [4] | EC50 (read off the curve) [1] [µg/mL] | binding result [5] |
| --- | --- | --- | --- | --- | --- | --- |
| M0747 (VHH, Llama-derived VHH; detected with anti-VHH (ELISA) or anti-Flag (flow)) VHH: EVQLVESGGGLAQAGGSLRVSCVASGRPFTKYAWGWFRQAPGKAREFVATITWDGGKTDYADSVKGRFTISKDSAENSIYLQMNSLKPEDTAVYYCAADRNYCVGHRCYVRPDDYDYWGQGTQVTVSS | binds | no binding | no binding | no binding | – | – |
| M0742 (VHH, Llama-derived VHH; detected with anti-VHH (ELISA) or anti-Flag (flow)) VHH: EVQLVESGGGLVQPRGSLRLSCAASGFTFSNSGMSWVRQAPGKGLEWVSSISSGGSSTTYLDSVKGRFTISRDNAKNTLYLQMNSLKPEDTAVYYCSWADLRGRGTQVTVSS | – | no binding | binds | – | ~0.02 | – |
| M0743 (VHH, Llama-derived VHH; detected with anti-VHH (ELISA) or anti-Flag (flow)) VHH: EVQLVESGGGLVQPGGSLRLSCVASGFTFSWYTMNWVRQAPGKGFEWVASIGSGGTPTTYRESVKGRFTISRDNAKSTLYLQMNSLKPEDTAVYHCENGQARGQGTQVTVSS | – | no binding | no binding | no binding | ~0.003 | – |
| M0709 (Fab, V domains shown) VH: QSVKESGGRLVTPGTPLTLTCTVSGFSLSNYAMSWVRQAPGKGLEYIGIVSSGGTTYYASWAKGRFTISKTSTTVDLKITSPTTEDTATYFCAKDLYYGPTTYSAFNLWGQGTLVTVSS VL: SELVLTQPQSVSGSLGQTVSISCKRARDNIEDYYVHWYQQHPGKTPTIVIHKDDQRPSGVPDRFSGSIDSTSNSASLTITGLLAEDEADYFCQSFDNDASPVFGGGTQLTVTG | – | binds | binds | – | – | – |
| M0763 (Fab, V domains shown, also called M763; parental M0763 antibody) VH: QSVKESGGRLVTPGTPLTLTCTVSGFSLSNYAMSWVRQAPGKGLEYIGIVSSGGTTYYASWAKGRFTISKTSTTVDLKITSPTTEDTATYFCAKDLYYGPTTYSAFNLWGQGTLVTVSS VL: SELVLTQPASVQVNLGQTVSLTCTADTLSRSYASWYQLKPGQAPVLLIYRDTSRPSGVPDRFSGSSSGNTATLTISGAQAGDEGDYVCATSDGSGSNFQLFGGGTQLTVTG | – | no binding | no binding | no binding | ~1 | – |
| M0739 (VHH, Llama-derived VHH; detected with anti-VHH (ELISA) or anti-Flag (flow)) VHH: EVQLVESGGGSVQPGGSLRLSCAASGFTFSRSTMSWVRQAPGKGLEWVSSISGSGGVTTYTTSVKGRFTISRDNAKNLMYLQMNSLNPEDTAVYYCANGDNRGPGTQVTVSS | binds | no binding | binds | – | – | – |
| M1335 (antibody, V domains shown, Variant with the HCDR2 motif SWA replaced by DSV) VH: EVQLLESGGGSVQPGGSLRLSCTVSGFSLSNYAMSWVRQAPGKGLEWIGIVSSGGTTYYADSVKGRFTISKDTSKNTVYLQMNSLRAEDTASYYCAKDLYYGPSTYFVANLWGQGTSVTVSS VL: SYELTQPPSVSVSPGQTASITCTADTLSRSYASWYQQKPGQSPVLVIYRDTSRPSGIPERFSGSNSGNTATLTISGTQAMDEADYYCATRPSSGSNFQLFGGGTKLTVL | – | – | – | – | – | binds |
| M1342 (antibody, V domains shown, Variant with the HCDR2 motif SWA replaced by DSV) VH: EVQLLESGGGSVQPGGSLRLSCTVSGFSLSNYAMSWVRQAPGKGLEWIGIVSSGGTTYYADSVKGRFTISKDTSKNTVYLQMNSLRAEDTASYYCAKDLYYGPNTDYSAANLWGQGTSVTVSS VL: SYELTQPPSVSVSPGQTASITCTADTLSRSYASWYQQKPGQSPVLVIYRDTSRPSGIPERFSGSNSGNTATLTISGTQAMDEADYYCATRPSSGSNFQAFGGGTKLTVL | – | – | – | – | – | binds |
